The target of assay [1] is T1, human 4-1BB expressed on GloResponse NFkB-luc2/4-1BB Jurkat cells (Promega) (human, UniProt Q07011 24-255). Briefly: cell-based or functional assay.
Assay [2] concerns the target T1, human 4-1BB expressed on GloResponse …. The assay is described as follows: cell-based or functional assay. This is another data set of the same source.
For assay [3] the target is unchanged. Briefly: cell-based or functional assay. The source holds these as a separate data set.
The target in assay [4] is T2, human 4-1BB-Fc protein (Sino Biological) (human, UniProt Q07011 24-186).
T2 construct: not shown: Fc part of the bought fusion protein
T2 sequence (Q07011 24-186 limits assumed): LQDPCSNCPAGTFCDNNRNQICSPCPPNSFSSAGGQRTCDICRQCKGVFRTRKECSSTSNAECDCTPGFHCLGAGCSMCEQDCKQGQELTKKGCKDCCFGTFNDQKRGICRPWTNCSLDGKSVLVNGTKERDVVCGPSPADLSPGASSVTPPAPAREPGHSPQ
The assay is described as follows: ELISA, plate coated with human 4-1BB-Fc at 0.1 ug/mL, detection with HRP-conjugated goat anti-human IgG. (In general: In an ELISA, binding on a coated surface is turned into a signal by an enzyme label.)

T1 sequence (Q07011 24-255 limits assumed): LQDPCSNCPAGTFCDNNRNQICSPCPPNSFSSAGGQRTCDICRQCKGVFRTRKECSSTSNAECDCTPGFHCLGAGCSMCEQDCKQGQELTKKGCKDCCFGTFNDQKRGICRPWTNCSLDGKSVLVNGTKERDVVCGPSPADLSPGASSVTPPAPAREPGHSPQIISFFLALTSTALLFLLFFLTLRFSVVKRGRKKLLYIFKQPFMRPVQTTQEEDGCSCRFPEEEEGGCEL

B1: Urelumab (antibody, V domains shown)
VH: QVQLQQWGAGLLKPSETLSLTCAVYGGSFSGYYWSWIRQSPEKGLEWIGEINHGGYVTYNPSLESRVTISVDTSKNQFSLKLSSVTAADTAVYYCARDYGPGNYDWYFDLWGRGTLVTVSS
VL: EIVLTQSPATLSLSPGERATLSCRASQSVSSYLAWYQQKPGQAPRLLIYDASNRATGIPARFSGSGSGTDFTLTISSLEPEDFAVYYCQQRSNWPPALTFGGGTKVEIK
Regarding B1, in assay [1], the “fold difference in EC50 with against without FcγRIIb CHO-K1 cells” value is 2.2 fold and the “fold difference in top RLU with against without FcγRIIb CHO-K1 cells” value is 13.5 fold. In assay [2], the “EC50, FcγRIIb-dependent 4-1BB bioassay” value came out at 0.236 nM and the “Fold of induction (RLU), FcγRIIb-dependent 4-1BB bioassay” value was 196 fold. For the same molecule, in assay [3], the “EC50, FcγRIIb-independent 4-1BB bioassay” value is 0.52 nM and the “Fold of induction (RLU), FcγRIIb-independent 4-1BB bioassay” value was 15.6 fold.

B2: 1A10 (antibody, human IgG4 S228P, lambda, V domains shown)
VH: EVQLLESGGGLVQPGGSLRLSCAASGFTFSSYDMSWVRQAPGKGLEWVSWISYSGGSIYYADSVKGRFTISRDNSKNTLYLQMNSLRAEDTAVYYCARDGQRNSMREFDYWGQGTLVTVSS
VL: QSVLTQPPSASGTPGRRVTISCSGSSSNIGNNYVTWYQQLPGTAPKLLIYADSHRPSGVPDRFSGSKSGTSASLAISGLRSEDEADYYCATWDYSLSGYVFGGGTKLTVLG
notes: also called anti-4-1BB antibody 1A10
In general, EC50 refers to the concentration that produces a half-maximal response. Low values mean a more potent agent, high ones a less potent agent. Regarding B2, a half-maximal effect in assay [4] (EC50) was put at 0.24 nM.

B3: 1A12 (antibody, human IgG4 S228P, lambda, V domains shown)
VH: EVQLLESGGGLVQPGGSLRLSCAASGFTFSGYDMSWVRQAPGKGLEWVSVIYPDDGNTYYADSVKGRFTISRDNSKNTLYLQMNSLRAEDAAVYYCAKHGGQKPTTKSSSAYGMDGWGQGTLVTVSS
VL: B2 VL
notes: also called anti-4-1BB antibody 1A12
In assay [4], B3 gave a concentration for a half-maximal effect (EC50) of 0.18 nM.

B4: AB41 (antibody, human IgG4 S228P, kappa, V domains shown)
VH: QVQLQQSGAEVIKPGASVKLSCKASGYTFSSYWMHWVRQAPGQGLEWIGEINPGNGHTNYNEKFKSRATLTGDTSTSTVYMELSSLRSEDTAVYYCARSFTTARAFAYWGQGTLVTVSS
VL: DIVMTQSPAFLSVTPGEKVTITCRASQTISDYLHWYQQKPDQAPKLLIKYASQSISGIPSRFSGSGSGTDFTFTISSLEAEDAATYYCQDGHSFPPTFGQGTKLEIKR
notes: also called anti-4-1BB antibody AB41
Consider B4, for which the concentration giving a half-maximal response (EC50) in assay [4] turned out to be 0.2 nM.

For the origin of these results see US20250163180A1 (ABL BIO, published 2025).
